Test results: patent US20220348651A1, “ENTPD2 ANTIBODIES, COMBINATION THERAPIES, AND METHODS OF USING THE ANTIBODIES AND COMBINATION THERAPIES” (Novartis AG, priority 2019, published 2022)

T1: mouse ENTPD2 (Mus musculus, UniProt O55026)
T1 construct: residues 29-462 of mouse or rat ENTPD2 (the extracellular domain); mouse IgK signal peptide (N); His6; made in house; host or cells: FreeStyle 293-F cells, transient transfection
T1 sequence (O55026 29-462): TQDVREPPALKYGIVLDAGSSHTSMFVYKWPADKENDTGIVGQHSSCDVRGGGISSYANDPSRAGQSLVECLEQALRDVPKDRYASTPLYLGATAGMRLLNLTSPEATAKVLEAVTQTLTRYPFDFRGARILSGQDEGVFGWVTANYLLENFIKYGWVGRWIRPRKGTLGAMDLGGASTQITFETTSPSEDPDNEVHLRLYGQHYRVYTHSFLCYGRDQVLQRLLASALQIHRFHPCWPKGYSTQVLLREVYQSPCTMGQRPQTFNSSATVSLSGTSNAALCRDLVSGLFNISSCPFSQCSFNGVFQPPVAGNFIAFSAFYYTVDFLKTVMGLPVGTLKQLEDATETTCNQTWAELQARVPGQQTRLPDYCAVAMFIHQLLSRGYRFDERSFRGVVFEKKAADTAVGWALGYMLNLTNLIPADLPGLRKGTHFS

T2: Human ENTPD1 (Homo sapiens, UniProt P49961)
T2 construct: expressed in transfected cells; host or cells: NIH/3T3 (retroviral transduction, FACS-sorted)
T2 sequence (P49961 1-510): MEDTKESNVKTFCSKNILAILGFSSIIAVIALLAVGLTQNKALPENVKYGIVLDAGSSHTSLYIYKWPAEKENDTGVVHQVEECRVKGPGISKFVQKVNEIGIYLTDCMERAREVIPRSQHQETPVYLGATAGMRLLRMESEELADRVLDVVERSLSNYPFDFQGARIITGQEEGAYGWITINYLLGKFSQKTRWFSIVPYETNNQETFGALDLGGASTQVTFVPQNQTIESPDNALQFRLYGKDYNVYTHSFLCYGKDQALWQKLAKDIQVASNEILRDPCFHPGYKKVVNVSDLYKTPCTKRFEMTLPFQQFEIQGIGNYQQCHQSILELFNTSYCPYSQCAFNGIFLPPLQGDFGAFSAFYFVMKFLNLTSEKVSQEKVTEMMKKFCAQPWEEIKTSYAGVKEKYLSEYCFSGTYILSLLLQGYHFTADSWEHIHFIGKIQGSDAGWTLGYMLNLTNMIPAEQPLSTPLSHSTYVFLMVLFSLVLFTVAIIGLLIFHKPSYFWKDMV

B1: mAb13: anti-mouse ENTPD2 antibody; HC SEQ ID NO: 193, LC SEQ ID NO: 204 (antibody)
heavy: QVQLVQSGAELKQPGQSVKISCKASGYTFTHYGMNWVKQAPGQGLKWMGWINTDTGNPTYADDFKGRFVFSLDTSVSTAYLQISNLKNEDTATYYCVRYGTLYSGYGFFFDSWGQGTLVTVSSAKTTAPSVYPLAPVCGDTTGSSVTLGCLVKGYFPEPVTLTWNSGSLSSGVHTFPAVLQSDLYTLSSSVTVTSSTWPSQSITCNVAHPASSTKVDKKIEPRGPTIKPCPPCKCPAPNLLGGPSVFIFPPKIKDVLMISLSPIVTCVVVDVSEDDPDVQISWFVNNVEVHTAQTQTHREDYNSTLRVVSALPIQHQDWMSGKEFKCKVNNKDLPAPIERTISKPKGSVRAPQVYVLPPPEEEMTKKQVTLTCMVTDFMPEDIYVEWTNNGKTELNYKNTEPVLDSDGSYFMYSKLRVEKKNWVERNSYSCSVVHEGLHNHHTTKSFSRTPGK
light: DIMMTQSPSSLSVSAGEKATITCKSSQSLFNSNTNKNYLNWYLQKPGQSPKLLFYYASTRHTGVPDRFIGSGSGTDFTLTITSVQDEDLADYYCQQWYSYPWTFGPGTKLEIKRADAAPTVSIFPPSSEQLTSGGASVVCFLNNFYPKDINVKWKIDGSERQNGVLNSWTDQDSKDSTYSMSSTLTLTKDEYERHNSYTCEATHKTSTSPIVKSFNRNEC
B2: mAb7: humanized anti-human ENTPD2 antibody from mAb17; VH SEQ ID NO: 25, VL SEQ ID NO: 78 (antibody, V domains shown)
VH: QVQLVQSGAEVVKPGASVKISCKASGYTFTDYNMDWVKQAPGQRLEWIGDINPKYDISTYNQQFKGKATITVDKSASTAYMELSSLRSEDTAVYYCARRGFFLYYGINYYYFDVWGQGTLVTVSS
VL: EIVLTQSPATLSASPGEEITLSCSASSSVSYIHWYQQKPGQAPRLLIYSTSNLASGIPARFSGSGSGTFYTLTISSVEPEDAAVYYCHQWSSYPWTFGGGTKLEIK

Legend:
B16F10 tumor model = test: Syngeneic B16F10 tumor model, combination with anti-PD-1 Ab; tumor T cell influx by flow cytometry; assay type: in vivo, C57BL/6 mice
Method: B16F10 model was established in female C57BL/6 mice by subcutaneous injection of 0.5×10^6 cells into the right flank of each mouse. On day 7 once tumors reached approximately 30 mm^3, mice were randomized according to tumor volume into treatment groups (n=10 per group). Mice received treatment of either anti-mouse ENTPD2 mAb13 at a final dose 15 mg/kg, anti-PD-1 Ab (clone RMP1-14 Bio X Cell, West Lebanon, N.H.) i.p. at a final dose of 10 mg/kg or the combination of both treatments on days 1, 5, and 8. All doses were adjusted to individual mouse body weights.
In order to understand the impact of treatments on the tumor microenvironment, mice were euthanized on day 8 and tumors were dissociated in HyClone RPMI1640 media (GE Healthcare, Pittsburg, Pa.) using gentleMacs C-tubes (Miltenyi Biotec, Auburn, Calif.) on the gentleMacs Octo Dissociator (Miltenyi Biotec, Auburn, Calif.). Approximately 2×10^6 dissociated tumor cells were blocked with rat anti-mouse CD16/CD32 Ab (Biolegend, San Diego, Calif.) to reduce non-specific FcγRIII/II binding and subsequently stained with the following cocktail of Abs: rat anti-mouse CD45-BUV395 (clone 30-F11) (BD Biosciences, San Jose, Calif.), rat anti-mouse CD8a-BUV737 (clone 53-6.7) (BD Biosciences, San Jose, Calif.), rat anti-mouse CD4-BV510 (clone RM4-5) (BD Bioscience, San Jose, Calif.), anti-mouse CD69-PercPCy5.5 (clone H1-2F3) (Biolegend, San Diego, Calif.) and rat anti-mouse CD25-eFluor450 (clone eBio3C7) (eBioscience, San Diego, Calif.) at the manufacturers' recommended dilutions. All incubations and washes were performed in FACS Buffer composed of 1× HyClone Phosphate Buffered Saline (GE Healthcare, Pittsburg, PA), 1% HyClone Fetal Bovine Serum (GE Healthcare, Pittsburg, Pa.), 2 mM EDTA (ThermoFisher, Waltham Mass.). After staining with the cell surface antigen antibody cocktail, dissociated tumor cells were washed in FACS buffer, fixed and permeabilized using the eBioscience Foxp3/Transcription Factor Staining Buffer Kit (ThermoFisher, Waltham Mass.) to allow for intracellular staining with the mouse anti-mouse FOXP3-eFluor660 (clone 150D/E4) (eBioscience, San Diego, Calif.).

mouse ENTPD2 = target: T1, mouse ENTPD2; test: Antibody specificity: binding to mouse ENTPD2; settings: Mouse ENTPD2
Source text: Antibody specificity for mAbl-mAblO was confirmed. […] Antibodies mAb8, mAb9, and mAb10 show weak affinity to mouse ENTPD2. None of the selected antibodies bind to rat ENTPD2.

Human ENTPD1 = target: T2, Human ENTPD1; test: Cross reactivity: FACS binding to human ENTPD1 expressing NIH/3T3 cells; settings: NIH/3T3-ENTPD1 cells, 50 nM antibody
Method: FACS screening: Specific binding of candidate antibodies to endogenously expressed ENTPD2 was assessed by flow cytometry. Cells were rinsed thoroughly with 1×PBS and treated with Accutase (Millipore #SCR005) to lift from growth plates and resuspended at approximately 1×10^5 cells/90 μL in 1× FACS buffer (2% FBS+0.1% NaN3 in PBS). In a 96-well U-bottom plate, 10 μL of 10× antibody solution in FACS buffer was pre-seeded and 90 μL of cell suspension was added. Cell were incubated for 30 minutes at 4° C., washed 1× with cold PBS and resuspended in 100 μL of 1:500 secondary antibody 1× FACS buffer (Allophycocyanin conjugated F(ab′)2 goat anti-human IgG, Fcγ specific; Jackson Immunoresearch, Cat#109-136-098). After additional incubation for 15 min at 4° C., cells were washed twice with PBS and resuspended in 100 μL of 1×FACS buffer with 4 μg/mL propidium iodide (Life Technologies, Cat#P3566). Geometric mean fluorescence intensity was calculated on live single cells using FlowJo software.
Cross reactivity Human ENTPD1 (NP_001767) expressing NIH/3T3 cells were generated using a retroviral transduction approach. 72 hrs post transduction, engineered cells were stained with the anti-Human CD39/ENTPD1 APC-conjugated Antibody (R&D systems, Minneapolis, Minn.) and live cells that expressed human ENTPD1 were separated from the rest of the population via fluorescence activated cell sorting. […]

[1] = combination with anti-PD-1 Ab, tumor, day 8

Molecule	anti-tumor efficacy (B16F10 tumor model; alone, mAb13 15 mg/kg, anti-PD-1 Ab 10 mg/kg i.p., days 1, 5, 8)	tumor growth relative to No Treatment control (B16F10 tumor model; combination of mAb13 15 mg/kg and anti-PD-1 Ab 10 mg/kg)	influx of activated CD4 T-helper cells (CD45+ CD8-CD4+ FOXP3-CD69+ CD25+), increase vs No Treatment (B16F10 tumor model; [1])	influx of activated CD8 T cells (CD45+ CD4-CD8+ CD69+ CD25+), change vs No Treatment (B16F10 tumor model; [1])	BIACore KD (mouse ENTPD2)	Apparent FACS binding at 50 nM (Human ENTPD1)
B1	No significant anti-tumor efficacy	significant reduction in tumor growth	7.0 -fold	5.8 -fold	–	–
B2	–	–	–	–	No binding	No binding
